Experimental data from paper PMC4003281.

Molecular target: DegP^S210A/R207P (Escherichia coli) (UniProt P0C0V0)
Assay: fluorescence polarisation

^flC18–58, fluorescent peptide derived from residues 18–58 of lysozyme
Kd: 1700 nM
